Experimental data taken from the supplement of paper PMC12042874.
± gives the uncertainty stated by the source.

Assay: amyloid nucleation score (Sup35N fusion, yeast selection) (log enrichment); library NNK2; higher = more nucleation; inactive = no reads after selection
Outline: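 Peptides of 20 random codons, each fused to Sup35N, were expressed in psi-negative yeast. Cells were induced with 100 μM copper sulfate for 24 hours and grown 7 days at 30°C on medium lacking adenine and uracil, and plasmid inserts before and after selection were Illumina-sequenced. Nucleation scores are DiMSum log enrichments of output over input reads, centred on the mode score of non-aggregating sequences, and sequences under 100 input reads were excluded.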
Work on FFQEGYNRVPS yielded an amyloid nucleation score of -0.336 ± 0.62. For FFQVPSSNLVSLTDRLYSLG, the amyloid nucleation score was -1.16 ± 0.5. In the case of FFSNL, the amyloid nucleation score is reported as 0.119 ± 0.57. In the case of FFSTTYNHNSDFAWDQAELY, the amyloid nucleation score is reported as 0.016 ± 1.1. With FFTVFLQDIMVWRDQWIYPQ the amyloid nucleation score was “inactive”. In the case of FFYEFFSHICLGQERGWPRV, the amyloid nucleation score is reported as “inactive”. Substance FGCIFYPMYLS has an amyloid nucleation score of 5.32 ± 0.088. FGDLGLIVRDSKSLLGSIKQ showed an amyloid nucleation score of 0.053 ± 0.79. FGFKCSAVITICPGPSRLGS showed an amyloid nucleation score of 5.12 ± 0.081. For FGGRFIQSRVSMR, the amyloid nucleation score was “inactive”. In the case of FGIERCRLYGNFYCVAVLGS, the amyloid nucleation score is reported as “inactive”. In the case of FGILGCMYVNPNMNMIYWLW, the amyloid nucleation score is reported as 1.56 ± 0.24. For FGLDLVFISFQARKCFVVMD, the amyloid nucleation score was “inactive”. For FGLGVCNWIYGCKMDAFNSG, the amyloid nucleation score was 6.223 ± 0.039. Substance FGMLFGQDKTVHRSGLDLCG has an amyloid nucleation score of 0.119 ± 0.5. In the case of FGVITNSGCGRLFAEEKTRW, the amyloid nucleation score is reported as 1.15 ± 0.16. For FGWVVSSVSFKVMMAV, the amyloid nucleation score was -0.084 ± 0.44. FHVEHGAWWCIGDRFVVPGF showed an amyloid nucleation score of 0.541 ± 0.2. In the case of FHVTVRFRSYCIFDPRGCVI, the amyloid nucleation score is reported as 1.81 ± 0.21. For FIEVTSRNT, the amyloid nucleation score was -0.994 ± 0.42. Work on FIFGCTCNILFICASSRFLQ yielded an amyloid nucleation score of 2.92 ± 0.11. Work on FIFVSNKYTNGIFAILGT yielded an amyloid nucleation score of 1.98 ± 0.13. FIILYGSGMRLNFQGI showed an amyloid nucleation score of 0.968 ± 0.23. In the case of FIKDKKSPSCCAN, the amyloid nucleation score is reported as -0.866 ± 0.4. Work on FIKRSAGNREANYNVTKENA yielded an amyloid nucleation score of 0.816 ± 0.74. With FILVCWISIFGLFMIPGMWD the amyloid nucleation score was -1.13 ± 0.64. Work on FIMEAFFEPFNKGYRYRMMS yielded an amyloid nucleation score of 0.833 ± 0.18. For FINGGSCYAFFCKYGYRMHR, the amyloid nucleation score was -0.109 ± 0.37. FIRVLVWWYVCRLFPHCVAR showed an amyloid nucleation score of 0.554 ± 0.81. FISDVPHERLRLTFIF showed an amyloid nucleation score of -1.41 ± 0.64. Work on FISGYLSETVMVLVDRRLRC yielded an amyloid nucleation score of -0.047 ± 1.1. With FIVWVV the amyloid nucleation score was -0.916 ± 1.1. FIVYKVPFRV showed an amyloid nucleation score of -0.934 ± 0.78. FKGDVHANHFICQMLFAPFR gave an amyloid nucleation score of 8.596 ± 0.057. Work on FLACRSLGKPRMFDRSLRYV yielded an amyloid nucleation score of 0.185 ± 0.44. In the case of FLARLI, the amyloid nucleation score is reported as 0.45 ± 0.74. Substance FLDPTVFSYLQVTCDIVDLH has an amyloid nucleation score of -0.113 ± 1.1. Work on FLDQWDMCP yielded an amyloid nucleation score of 0.619 ± 0.81. FLECTSNIDVAMSPWLTLLN showed an amyloid nucleation score of -0.505 ± 1.1. For FLFMAIYSILLASIYVAFLS, the amyloid nucleation score was 2.02 ± 0.2. With FLFSFKDPKHMDITCKAVYA the amyloid nucleation score was -0.433 ± 0.78. With FLGDFRVCLF the amyloid nucleation score was “inactive”. Substance FLGLYKRYGVEVGLYMLILV has an amyloid nucleation score of -0.742 ± 0.24. With FLGSVSVLLDKSSSGVNSKR the amyloid nucleation score was -0.284 ± 1.1. With FLISEDVFHSNSSVWEHISL the amyloid nucleation score was -0.173 ± 0.56. FLMSVTYCKGFGRTEECACC showed an amyloid nucleation score of -0.28 ± 0.33. In the case of FLMVVVGNVLPLSKCYALWY, the amyloid nucleation score is reported as -0.007 ± 0.55. For FLNMTIRVLAWFVYTI, the amyloid nucleation score was “inactive”. FLNWCISKLR showed an amyloid nucleation score of -0.735 ± 1. For FLRLGLAITLISV, the amyloid nucleation score was “inactive”. For FLRLHE, the amyloid nucleation score was “inactive”. With FLSARHGRGFARGFSPP the amyloid nucleation score was “inactive”. For FLSDNVISAY, the amyloid nucleation score was -0.543 ± 0.38. FLTLPFLPAHLKKPHKSLLR gave an amyloid nucleation score of -0.083 ± 0.56. Substance FLVYMIVVV has an amyloid nucleation score of -0.702 ± 1.1. In the case of FLYIRRAVGKWFLVFVTLQQ, the amyloid nucleation score is reported as 0.135 ± 0.48. FLYRVNAKWVWLRGLSLWQW showed an amyloid nucleation score of 0.252 ± 0.23. FMDWKLYSDPWAKF gave an amyloid nucleation score of -0.639 ± 0.37. FMGGFG gave an amyloid nucleation score of 0.079 ± 0.63. Work on FMGRMLVIHL yielded an amyloid nucleation score of 0.277 ± 0.41. Substance FMHNHGPGLDTYAYGTR has an amyloid nucleation score of -1.13 ± 0.64. FMLRICPGYAKGRCISWHSR gave an amyloid nucleation score of 0.396 ± 0.46. With FMLTLQKTLFFCNDRVC the amyloid nucleation score was 5.25 ± 0.064. Work on FMTKTPLYVKSYSFWFDLVM yielded an amyloid nucleation score of 1.57 ± 0.36. FMVDASLNQRMGINQFVCS showed an amyloid nucleation score of -1.34 ± 0.76. FMYGTDSFGL gave an amyloid nucleation score of -1.08 ± 0.78. With FNMHI the amyloid nucleation score was 0.8 ± 0.8. For FNRPAQNGLAKYWYWIQ, the amyloid nucleation score was 0.142 ± 0.42. For FNRVDDMCGPWCENWLNGQT, the amyloid nucleation score was -1.23 ± 1.1. FNSWLV gave an amyloid nucleation score of -0.86 ± 1.1. FNTNRNEMCSML gave an amyloid nucleation score of -0.476 ± 1.1. Work on FNTSFNSVFPCSYRRFTGDI yielded an amyloid nucleation score of 1.72 ± 0.097. In the case of FNTSTAFESTDVKSKVM, the amyloid nucleation score is reported as -1.22 ± 1.1. Work on FPAWTDGVVLVRVVGASTEE yielded an amyloid nucleation score of -0.132 ± 0.34. Substance FPCSVRVTLTYLFMYEPVRP has an amyloid nucleation score of 0.076 ± 0.2. With FPDSSEISHGAVHLLQVCPL the amyloid nucleation score was -0.313 ± 0.33. Substance FPNDKLCNFFFDNNQSLARK has an amyloid nucleation score of -1.31 ± 1. With FPSVLSFWKTMSVCGDHPYP the amyloid nucleation score was -0.686 ± 0.3. In the case of FPVYRI, the amyloid nucleation score is reported as “inactive”. FQDVDVLGSWPG showed an amyloid nucleation score of 0.387 ± 0.53. In the case of FQGCIPFLFVNSWFSYSFVK, the amyloid nucleation score is reported as -1.36 ± 1.1. FQLPFIVFRRMIVYLKWRWG gave an amyloid nucleation score of -1.05 ± 0.78. In the case of FQMVLYRYYTTGISGKLLQD, the amyloid nucleation score is reported as “inactive”. In the case of FQSHWVLERGI, the amyloid nucleation score is reported as -0.901 ± 1. In the case of FRDVPGRECMRLRVYGMNLP, the amyloid nucleation score is reported as 0.753 ± 0.21. Substance FRFLDNELQNRGRRMYQLGY has an amyloid nucleation score of -0.465 ± 1.
